Data from patent US20020197702A1.
* marks the point of attachment. AMC = Cc1cc(=O)oc2cc(N*)ccc12

Biological target: membrane-derived caspases
Experiment: cell-based or functional assay

Km for hydrolysis of DEVD-amc: 10 µM
Binder: Ac-DEVD-{AMC} [DEVD-amc (Acetyl-Asp-Glu-Val-Asp-aminomethylcoumarin)]
